{"source": "paper PMC7653264", "about": "(2020)", "binders": {"B1": {"name": "H3K79me0 peptide (amino acids H3 75-83) (peptide)", "chain": "AQDFKTDLR"}}, "key": {"GST-PCNA [1]": {"target": "T1, GST-PCNA (UniProt P12004 1-261)", "T1 sequence (P12004 whole entry)": "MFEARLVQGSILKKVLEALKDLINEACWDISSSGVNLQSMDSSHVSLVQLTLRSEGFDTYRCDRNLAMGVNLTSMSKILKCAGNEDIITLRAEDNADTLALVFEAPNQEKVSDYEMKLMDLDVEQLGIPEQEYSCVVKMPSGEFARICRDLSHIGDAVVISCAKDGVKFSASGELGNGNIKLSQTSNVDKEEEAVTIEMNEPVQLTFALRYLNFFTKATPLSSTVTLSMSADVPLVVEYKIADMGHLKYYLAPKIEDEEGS", "assay": "ITC"}, "GST-PCNA [2]": {"target": "T1, GST-PCNA", "assay": "ITC", "remark": "listed apart in the source"}}}
{"binder": "B1", "values": [{"measurement": "Ka", "setting": "GST-PCNA [1]", "value": "1.16e+06", "unit": "M⁻¹"}, {"measurement": "Kd", "setting": "GST-PCNA [2]", "value": 1330, "unit": "nM"}]}
